Reference: paper PMC8225904

Biological target: mAb X’ (E262K sequence variant containing mAb X)
Test: ELISA; plates coated with serially diluted mAb, constant amount of C1q added, detected with biotinylated anti-C1q antibody and HRP-streptavidin; relative binding by parallel line analysis against mAb X

C1q protein (complex)
relative binding against mAb X: 0.95
